# Assay results published in US20210380703A1 (RIGEL PHARMACEUTICALS, published 2021).
# Changes are numbered by the printed parent chain.
# B1: 373_H05 (antibody, V domains shown)
# VH: EVQLLESGGGLVQPGGSLRLSCAASGFTFSDYSMNWVRQAPGKGLEWVANINYNGGYKGYADSVKGRFTISRDNSKNTLYLQMNSLRAEDTAVYYCARSANWHDTALDYWGQGTLVTVSS
# VL: DIQMTQSPSSLSASVGDRVTITCRASQSILTYVNWYQQKPGKAPKLVIYAATSRASGVPSRFSGSGSGTDFTLTISSLQPEDFATYYCQQSYETPLTFGGGTKVEIK
# B2: 374_A03 (antibody, V domains shown)
# VH: B1 VH with S30D, D31S, A49S, K58T, G59S, N101T, A106H
# VL: B1 VL with V33L, V47L, E93D, T94N
# notes: VH and VL only
# B3: 365_A04 (antibody, V domains shown)
# VH: B1 VH with A49S, N50G, G55S, K58T, G59S, N101T, A106H
# VL: B1 VL with L30V, T31S, R54L, E93S
# notes: VH and VL only
# B4: 367_H04 (antibody, V domains shown)
# VH: B1 VH with D31S, A49S, N50S, K58T, G59S, N101T, A106H
# VL: B1 VL with V47L, A55H, Y92D, E93N, T94N
# notes: VH and VL only
# B5: 365_E08 (antibody, V domains shown)
# VH: B1 VH with S30D, D31S, A49S, N50G, G55S, K58T, G59S, N101T, A106H
# VL: B1 VL with L30I, T31S, R54L, E93D, T94L
# notes: VH and VL only
# B6: 365_D06 (antibody, V domains shown)
# VH: B1 VH with S30D, D31S, A49S, K58T, G59S, N101T, A106H
# VL: B1 VL with V47L, E93S, T94L
# notes: VH and VL only
# B7: 367_G08 (antibody, V domains shown)
# VH: B1 VH with S30D, D31S, S33G, A49S, N101T, A106H
# VL: B1 VL with T31S, V33L, V47L, T94N
# notes: VH and VL only
# B8: 367_A11 (antibody, V domains shown)
# VH: B1 VH with D31S, S33G, N35H, A49S, N50G, K58T, G59S, N101T, A106H
# VL: B1 VL with T31S, A51T, R54L, E93N, T94S
# notes: VH and VL only
# B9: 374_D01 (antibody, V domains shown)
# VH: B1 VH with S30D, D31S, A49S, N50G, G55S
# VL: B1 VL with L30I, V47L, R54L, E93S, T94S
# B10: 374_C03 (antibody, V domains shown)
# VH: B1 VH with S30D, D31S, A49S, N50G, G55S, K58T, G59S
# VL: B1 VL with V33L, V47L, E93D, T94S
# B11: 374_C06 (antibody, V domains shown)
# VH: B1 VH with S30D, A49S, N50S, G55S
# VL: B1 VL with V47L, E93N, T94S
# B12: 365_H04 (antibody, V domains shown)
# VH: B1 VH with S33G, A49S, N50G, G55S, G59S, N101T, A106H
# VL: B1 VL with T94S
# notes: VH and VL only
# B13: 366_E03 (antibody, V domains shown)
# VH: B1 VH with S30D, D31S, S33G, A49S, G59S, N101T, A106H
# VL: B1 VL with V33L, A55H, E93S, T94N
# notes: VH and VL only
# B14: 368_G07 (antibody, V domains shown)
# VH: B1 VH with D31S, N35H, A49S, N50S, K58T, G59S, N101T, A106H
# VL: B1 VL with L30V, T31S, E93D
# notes: VH and VL only
# B15: 374_A07 (antibody, V domains shown)
# VH: B1 VH with D31S, A49S, N50G, G55S
# VL: B1 VL with T31S, V47L, A51V, E93D, T94L
# B16: 367_D02 (antibody, V domains shown)
# VH: B1 VH with S30D, A49S, K58T, G59S, N101T, A106H
# VL: B1 VL with L30V, V47L, T94N
# notes: VH and VL only
# B17: 366_C07 (antibody, V domains shown)
# VH: B1 VH with D31S, A49S, K58T, G59S, N101T, A106H
# VL: B1 VL with V47L, E93N, T94S
# notes: VH and VL only
# B18: 367_F12 (antibody, V domains shown)
# VH: B1 VH with S30D, A49S, G55S, N101T, A106H
# VL: not shown
# notes: VH and VL only
# B19: 365_G02 (antibody, V domains shown)
# VH: B1 VH with A49S, G55S, N101T, A106H
# VL: B1 VL with L30V, V33L, A51V, R54L, A55H, T94L
# notes: VH and VL only
# B20: 368_G08 (antibody, V domains shown)
# VH: B1 VH with S30D, S33G, A49S, N50S, G55S, G59S, N101T, A106H
# VL: B1 VL with L30V, T31S, V47L, A55H, E93N, T94N
# notes: VH and VL only
# B21: 369_A01 (antibody, V domains shown)
# VH: B1 VH with S30D, D31S, A49S, N50G, G55S, N101T, A106H
# VL: B1 VL with R54L, T94L
# notes: VH and VL only
# B22: 368_B05 (antibody, V domains shown)
# VH: B1 VH with S30D, D31S, A49S, N50S, G55S, K58T, N101T, A106H
# VL: not shown
# notes: VH and VL only
# B23: 365_E03 (antibody, V domains shown)
# VH: B1 VH with S30D, D31S, A49S, K58T, N101T, A106H
# VL: B1 VL with V47L, R54L, A55H, Y92D, T94R
# notes: VH and VL only
# B24: 374_B04 (antibody, V domains shown)
# VH: B1 VH with D31S, A49S, G55S, K58T
# VL: B1 VL with L30V, T31S, V33L, V47L, A51V, T94S
# B25: 366_C03 (antibody, V domains shown)
# VH: B1 VH with S30D, D31S, S33G, A49S, K58T, N101T, A106H
# VL: B1 VL with T31S, V33L, E93S, T94N
# notes: VH and VL only
# B26: 365_H09 (antibody, V domains shown)
# VH: B1 VH with D31S, S33G, A49S, N50S, G55S, G59S, N101T, A106H
# VL: not shown
# notes: VH and VL only
# B27: 366_F06 (antibody, V domains shown)
# VH: B1 VH with S33G, A49S, N50S, K58T, G59S, N101T, A106H
# VL: B1 VL with L30S, V33L, V47L, R54L, E93S, T94N
# notes: VH and VL only
# B28: 374_B06 (antibody, V domains shown)
# VH: B1 VH with S30D, D31S, N50G, G55S, A106H
# VL: B1 VL with V47L, E93D
# B29: 366_E02 (antibody, V domains shown)
# VH: B1 VH with D31S, A49S, N50G, G55S, N101T, A106H
# VL: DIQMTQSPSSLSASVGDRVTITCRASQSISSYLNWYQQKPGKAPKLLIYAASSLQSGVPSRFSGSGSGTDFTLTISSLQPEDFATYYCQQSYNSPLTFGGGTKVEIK
# notes: VH and VL only
# B30: 374_E01 (antibody, V domains shown)
# VH: B1 VH with D31S, S33G, N50G, K58T, G59S
# VL: B1 VL with L30S, T31S, V47L, E93S
# B31: 374_D08 (antibody, V domains shown)
# VH: B1 VH with S30D, D31S, S33G, A49S, N50G, G55S, K58T, A106H
# VL: B1 VL with V33L, V47L, A55H, T94S
# B32: 369_A06 (antibody, V domains shown)
# VH: B1 VH with S33G, A49S, K58T, N101T, A106H
# VL: B1 VL with T31S, V47L, R54L, E93D, T94L
# notes: VH and VL only
# B33: 374_B12 (antibody, V domains shown)
# VH: B1 VH with S30D, D31S, N50G, K58T, A106H
# VL: B1 VL with L30S, T31S, V33L, E93D, T94N
# B34: 365_A02 (antibody, V domains shown)
# VH: B1 VH with S30D, D31S, A49S, K58T, G59S, N101T, A106H
# VL: B1 VL with V47L, E93N, T94S
# notes: VH and VL only
# Legend:
# Mouse ACVR2A [1] = biological target: Mouse ACVR2A (mouse, UniProt P27038 20-135, limits assumed); assay: ELISA
# Outline: (§1)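 ELISA measured binding of ACVR2A-specific monoclonal antibodies to human and mouse ACVR2A. Biotinylated goat anti-human kappa light chain served as positive control and human Fc as negative control.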
# Human ACVR2A [2] = biological target: T1, Human ACVR2A (human, UniProt P27037 20-135, limits assumed); assay: ELISA
# T1 construct: also called activin receptor, type II A
# Outline: as §1
# Goat anti-Human Kappa = biological target: T2, Goat anti-Human Kappa; assay: ELISA, positive control
# T2 construct: Positive control of the ELISA; also called biotinylated goat anti-human kappa light chain
# Outline: as §1
# human ACVR2A [3] = biological target: T3, human ACVR2A (human, UniProt P27037 20-135, limits assumed); assay: ELISA
# T3 construct: also called activin receptor, type II A
# Outline: as §1
# mouse ACVR2A [4] = biological target: mouse ACVR2A (mouse, UniProt P27038 20-135, limits assumed); assay: ELISA
# Outline: as §1
# [5] = biological target: T4, biotinylated goat anti-human kappa light chain; assay: ELISA, positive control
# T4 construct: Positive control of the ELISA
# Outline: as §1
# Note: test concentration or dose not given here.
# T3 sequence (P27037 20-135 limits assumed): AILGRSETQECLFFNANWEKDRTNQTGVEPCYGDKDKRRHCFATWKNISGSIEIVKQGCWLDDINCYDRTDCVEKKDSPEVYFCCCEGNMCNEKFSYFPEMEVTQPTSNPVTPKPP
# T1 sequence (P27037 20-135 limits assumed): as above
# Sequence of mouse ACVR2A (P27038 20-135 limits assumed): as the sequence (P27037 20-135 limits assumed) above, with K20R, V73I counted along it
# Sequence of Mouse ACVR2A (P27038 20-135 limits assumed): as the sequence (P27037 20-135 limits assumed) above, with K20R, V73I counted along it
optical density (Mouse ACVR2A [1]) [OD],optical density (Human ACVR2A [2]) [OD],optical density (Goat anti-Human Kappa) [OD],optical density (human ACVR2A [3]) [OD],optical density (mouse ACVR2A [4]) [OD],optical density [5] [OD],Binder
3.29,3.29,3.22,,,,B1
,,,3.58,3.71,3.05,B2
,,,1.49,1.41,3.28,B3
,,,1.62,1.85,3.4,B4
,,,2.59,2.58,3.33,B5
,,,2.95,3.08,3.42,B6
,,,2.69,2.78,3.32,B7
,,,2.34,2.52,3.61,B8
3.58,3.24,2.94,,,,B9
3.61,3.58,3.06,,,,B10
3.71,3.71,3.24,,,,B11
,,,2.47,2.59,3.5,B12
,,,2.55,2.72,3.54,B13
,,,1.79,2.05,3.16,B14
3.71,3.62,3.07,,,,B15
,,,2.46,2.46,3.46,B16
,,,3.02,3.06,3.37,B17

optical density (Mouse ACVR2A [1]) [OD],optical density (Human ACVR2A [2]) [OD],optical density (Goat anti-Human Kappa) [OD],optical density (human ACVR2A [3]) [OD],optical density (mouse ACVR2A [4]) [OD],optical density [5] [OD],Binder
,,,2.38,2.29,3.6,B18
,,,1.98,2.15,3.45,B19
,,,1.6,1.75,3.29,B20
,,,3.6,3.66,3.55,B21
,,,1.73,1.75,3.26,B22
,,,2.56,2.69,3.33,B23
3.64,3.67,3.3,,,,B24
,,,2.41,2.74,3.55,B25
,,,2.38,2.56,3.53,B26
,,,1.87,2.15,3.44,B27
3.6,3.48,3.08,,,,B28
,,,2.26,2.58,3.46,B29
3.56,3.24,3.04,,,,B30
3.59,3.5,3.02,,,,B31
,,,2.89,3.01,3.32,B32
3.33,3.49,3.05,,,,B33
,,,3.03,2.96,3.49,B34
